We go through 67 sequences from the supplement of paper PMC10126150.

± gives the standard deviation of the averaged measurements.
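Note: ATP exposure 15 min at 22 °C before imaging.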

This data set concerns ATP. As to the kind of experiment: switch fluorescence ratio, 500 uM ATP over buffer (Cy3 cluster intensity, sum of 5 cycles each) (fold (ratio)); higher = stronger signal-on switching upon ATP binding; sequences stand for … in TCGTCGGCAGCGTCAGATGTGTATAAGAGACAGTTTTTTTTTTTTTTTTTTTTTTTTT…TC. To be noted: aptamer strand: ATP DNA aptamer (quencher-CACCTGGGGGAGTATTGCGGAGGAAGG + anchor), 100 nM annealed; ATP concentration: 500 uM. In short, it runs like this: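 Switching-strand clusters labelled with Cy3 on a modified Illumina MiSeq flow-cell were annealed to 100 nM quencher-labelled ATP aptamer, imaged in selection buffer, and re-imaged after 15 min with 500 uM ATP at 22 °C. This was done over five cycles with NaOH stripping and re-annealing in between. The fluorescence ratio is summed target-cycle over summed buffer-cycle Cy3 intensity per cluster, averaged per switch-domain sequence, excluding clusters outside 100-1000 RFU.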
On to GTTGCAGTTG, for which the switch fluorescence ratio is 1.07 ± 0.077.

As to AGTCGTTCTG, the switch fluorescence ratio was 0.99 ± 0.01.

As for TATGGGGGA, the switch fluorescence ratio amounted to 1.01 ± 0.069.

Regarding GGGGGACCTA, the switch fluorescence ratio stood at 0.946 ± 0.026.

For CGAGTTCGTT, the switch fluorescence ratio amounted to 1 ± 0.025.

For the sequence AATGGGGGAG, the switch fluorescence ratio is 0.981 ± 0.0099.

Regarding ACGAAGTTTT, the switch fluorescence ratio was 1.02 ± 0.0028.

As to TTGGTGGTTG, the switch fluorescence ratio was 0.993 ± 0.029.

ACTGGTATTA: the switch fluorescence ratio worked out at 1.02 ± 0.014.

Regarding TAGCGAGGGG, the switch fluorescence ratio turned out to be 0.98529 ± 0.00026.

Turning to GTTGGGCCGA, the switch fluorescence ratio stood at 1.03 ± 0.038.

In the case of CAGTCTGGTA, the switch fluorescence ratio was determined as 0.9966 ± 0.0042.

Turning to AAGCCTATTG, the switch fluorescence ratio stood at 0.961 ± 0.017.

Turning to CGTTATTTCT, the switch fluorescence ratio was 1.01 ± 0.052.

On to CCCCGGGGTT, for which the switch fluorescence ratio came to 1.88 ± 1.2.

Consider CCAAAAGGTT, for which the switch fluorescence ratio stood at 1.01 ± 0.017.

In the case of TTATGGGACA, the switch fluorescence ratio stood at 1.026 ± 0.0097.

GGGGCGGCGA: the switch fluorescence ratio turned out to be 1.02 ± 0.047.

For GAGGGAAAAG, the switch fluorescence ratio stood at 1.01 ± 0.032.

As to TAGTTTAGGT, the switch fluorescence ratio turned out to be 0.9964 ± 0.0051.

For the sequence CGTGCGGGGT, the switch fluorescence ratio was found to be 0.991 ± 0.028.

Regarding AGTCTAGGCG, the switch fluorescence ratio amounted to 0.985 ± 0.011.

As for TGTGTCAATT, the switch fluorescence ratio amounted to 0.9841 ± 0.0092.

In the case of GGTGGGGTTT, the switch fluorescence ratio is 0.999 ± 0.054.

As to GCGGTGGGTT, the switch fluorescence ratio amounted to 0.9862 ± 0.0096.

With GGGGCGCGGG, the switch fluorescence ratio worked out at 1.03 ± 0.033.

In the case of TTAAAGAGCG, the switch fluorescence ratio was determined as 0.989 ± 0.04.

AACATAGTCA: the switch fluorescence ratio worked out at 1.006 ± 0.0024.

With TTTTTTAGC, the switch fluorescence ratio came to 1.02 ± 0.03.

For CGTGCAGTTC, the switch fluorescence ratio stood at 1.15 ± 0.036.

Take CACGAAGGAA: the switch fluorescence ratio turned out to be 1.07 ± 0.019.

For GATGGGCTCG, the switch fluorescence ratio was 0.988 ± 0.025.

For the sequence ACCGCGTGGG, the switch fluorescence ratio was 1.04 ± 7.3e-05.

Turning to GCCTCAGACA, the switch fluorescence ratio turned out to be 1.047 ± 0.0092.

Consider TGTTGGCGCG, for which the switch fluorescence ratio was found to be 0.989 ± 0.053.

As to TTTGGCGTGC, the switch fluorescence ratio worked out at 1 ± 0.045.

For the sequence TCAGGGGCTT, the switch fluorescence ratio was 1.16 ± 0.28.

As for ATTAGGATTG, the switch fluorescence ratio turned out to be 1 ± 0.053.

Take TATGCGGTCC: the switch fluorescence ratio is 1.02 ± 0.019.

In the case of GTGACCGGGA, the switch fluorescence ratio stood at 1 ± 0.027.

Take AATAGAATTA: the switch fluorescence ratio is 1 ± 0.018.

For CAGTTGGGAG, the switch fluorescence ratio worked out at 1.01 ± 0.029.

With TGGAATTCGG, the switch fluorescence ratio worked out at 1.02 ± 0.0061.

As for ACATGGCTAA, the switch fluorescence ratio turned out to be 1.08 ± 0.068.

For the sequence AACTGGGGGA, the switch fluorescence ratio stood at 1.06 ± 0.054.

As for GTTGAATCTT, the switch fluorescence ratio stood at 0.995 ± 0.035.

For the sequence CATCGATGTT, the switch fluorescence ratio came out at 1.025 ± 0.0064.

In the case of TCACTTCAAT, the switch fluorescence ratio is 1.033 ± 0.0099.

Regarding ATGAGTATGT, the switch fluorescence ratio was found to be 0.9961 ± 0.0014.

With TATGGGAGTT, the switch fluorescence ratio is 1 ± 0.01.

As for AAATAGTCTG, the switch fluorescence ratio amounted to 0.972 ± 0.017.

AACCTATTAT: the switch fluorescence ratio was determined as 0.998 ± 0.019.

As for TGATAGACAT, the switch fluorescence ratio is 0.988 ± 0.019.

On to TATTTTATTG, for which the switch fluorescence ratio came out at 1.03 ± 0.02.

ACTATCGGGT: the switch fluorescence ratio was 1.04 ± 0.028.

On to GGGTAAAAAG, for which the switch fluorescence ratio was 0.991 ± 0.018.

As for TTTCAAAATT, the switch fluorescence ratio came to 0.994 ± 0.018.

Consider GTTCACCGGG, for which the switch fluorescence ratio turned out to be 1.141 ± 0.0051.

On to TCTTACGGCT, for which the switch fluorescence ratio was determined as 1.03 ± 0.033.

Take TTATTTATTA: the switch fluorescence ratio turned out to be 1.0338 ± 0.00047.

Take ACTGAGTAA: the switch fluorescence ratio turned out to be 1.01 ± 0.076.

For TCCGATTTGT, the switch fluorescence ratio was 1.02 ± 0.08.

Turning to ATGGATGCGT, the switch fluorescence ratio amounted to 0.967 ± 0.015.

AGGGACAACT: the switch fluorescence ratio was determined as 1.08 ± 0.0015.

For GATCCGCTGG, the switch fluorescence ratio is 1.11 ± 0.012.

In the case of GGATTGAAGA, the switch fluorescence ratio is 0.969 ± 0.091.

For the sequence TCTTTATTAA, the switch fluorescence ratio came out at 0.989 ± 0.011.
